In test [1] the target is HA-1^R-peptide (…) loaded on HLA-A*02:01 encoded molecules on T2 cells (human). Nature of the test: cell-based or functional assay.
The target of test [2] is T1, Astn1 P1268L (control peptide) peptide on HLA-A*02:01 (human).
T1 peptide: KLYGLDWAEL
Nature of the test: cytokine release.

Test [3] deals with T2, HA-1^H (minor histocompatibility antigen 1, HMHA1 gene, H allele) peptide on HLA-A*02:01 (human).
T2 peptide: VLHDDLLEA
Description: multimer staining. The source says:
Transduced CD8 T cells were enriched by FACS using the murine constant beta region as a marker for transduction. After expansion of these cells, they were stained with an HA-1^H-MHC-multimer and antibodies against CD8 and the murine constant beta region (mCb) and analyzed by flow cytometry.
The nucleotide sequences of the isolated TCRs were codon optimized using the GeneOptimizer™ algorithm (ThermoFisher) and the constant regions were murinized. Codon optimized and murinized TCRs were used for all further experiments described herein. They were stained with an HA-1^H-MHC-multimer (immunAware) and antibodies against CD8 and the murine constant beta region. […] (FIG. 1)

Test [4] deals with T3, HA-1^R (minor histocompatibility antigen 1, HMHA1 gene, R allele) peptide on HLA-A*02:01 (human).
T3 peptide: VLRDDLLEA
Description: cytokine release.

For test [5], the target named is T2, HA-1^H (minor histocompatibility …). Nature of the test: killing.

B1: TCR_2, P01849 1-136 (TCR, not shown: a dimerising Fc or GST)
TCR alpha: GENVEQHPSTLSVQEGDSAVIKCTYSDSASNYFPWYKQELGKGPQLIIDIRSNVGEKKDQRIAVTLNKTAKHFSLHITETQPEDSAVYFCAAHTPGYSTLTFGKGTMLLVSPDIQNPEPAVYQLKDPRSQDSTLCLFTDFDSQINVPKTMESGTFITDKTVLDMKAMDSKSNGAIAWSNQTSFTCQDIFKETNATYPSSDVPCDATLTEKSFETDMNLNFQNLSVMGLRILLLKVAGFNLLMTLRLWSS
TCR beta: DTGVSQNPRHKITKRGQNVTFRCDPISEHNRLYWYRQTLGQGPEFLTYFQNEAQLEKSRLLSDRFSAERPKGSFSTLEIQRTEQGDSAMYLCASSPRAGGETQYFGPGTRLLVLE
As for B1, in test [1], the peptide concentration needed for recognition (IFN-γ release), relative to HA-1^H was greater than 10000 times.

B2: TCR_3, P01849 1-136 (TCR, not shown: a dimerising Fc or GST)
TCR alpha: SQQGEEDPQALSIQEGENATMNCSYKTSINNLQWYRQNSGRGLVHLILIRSNEREKHSGRLRVTLDTSKKSSSLLITASRAADTASYFCATGDQTGANNLFFGTGTRLTVIPYIQNPEPAVYQLKDPRSQDSTLCLFTDFDSQINVPKTMESGTFITDKTVLDMKAMDSKSNGAIAWSNQTSFTCQDIFKETNATYPSSDVPCDATLTEKSFETDMNLNFQNLSVMGLRILLLKVAGFNLLMTLRLWSS
TCR beta: DTGVSQNPRHKITKRGQNVTFRCDPISEHNRLYWYRQTLGQGPEFLTYFQNEAQLEKSRLLSDRFSAERPKGSFSTLEIQRTEQGDSAMYLCASSLTRTEKLFFGSGTQLSVLE
B2 showed a peptide concentration needed for recognition (IFN-γ release), relative to HA-1^H in test [1] greater than 10000 times.

B3: TCR_5, P01849 1-136 (TCR, not shown: a dimerising Fc or GST)
TCR alpha: TQLLEQSPQFLSIQEGENLTVYCNSSSVFSSLQWYRQEPGEGPVLLVTVVTGGEVKKLKRLTFQFGDARKDSSLHITAAQTGDTGLYLCAGAGNNDMRFGAGTRLTVKPNIQNPEPAVYQLKDPRSQDSTLCLFTDFDSQINVPKTMESGTFITDKTVLDMKAMDSKSNGAIAWSNQTSFTCQDIFKETNATYPSSDVPCDATLTEKSFETDMNLNFQNLSVMGLRILLLKVAGFNLLMTLRLWSS
TCR beta: DTGVSQNPRHKITKRGQNVTFRCDPISEHNRLYWYRQTLGQGPEFLTYFQNEAQLEKSRLLSDRFSAERPKGSFSTLEIQRTEQGDSAMYLCASSLVRGIEAFFGQGTRLTVVE
For the molecule B3, the peptide concentration needed for recognition (IFN-γ release), relative to HA-1^H in test [1] was greater than 10000 times.

B4: TCR_6, P01849 1-136 (TCR, not shown: a dimerising Fc or GST)
TCR alpha: RGEDVEQSLFLSVREGDSSVINCTYTDSSSTYLYWYKQEPGAGLQLLTYIFSNMDMKQDQRLTVLLNKKDKHLSLRIADTQTGDSAIYFCAEKWIIFGKGTRLHILPNIQNPEPAVYQLKDPRSQDSTLCLFTDFDSQINVPKTMESGTFITDKTVLDMKAMDSKSNGAIAWSNQTSFTCQDIFKETNATYPSSDVPCDATLTEKSFETDMNLNFQNLSVMGLRILLLKVAGFNLLMTLRLWSS
TCR beta: DTGVSQNPRHKITKRGQNVTFRCDPISEHNRLYWYRQTLGQGPEFLTYFQNEAQLEKSRLLSDRFSAERPKGSFSTLEIQRTEQGDSAMYLCASSLTTPDGYTFGSGTRLTVVE
Take B4: the peptide concentration needed for recognition (IFN-γ release), relative to HA-1^H in test [1] was greater than 10000 times.

B5: TCR_4, P01849 1-136 (TCR, not shown: a dimerising Fc or GST)
TCR alpha: GENVEQHPSTLSVQEGDSAVIKCTYSDSASNYFPWYKQELGKGPQLIIDIRSNVGEKKDQRIAVTLNKTAKHFSLHITETQPEDSAVYFCAGRGKLTFGTGTRLTIIPNIQNPEPAVYQLKDPRSQDSTLCLFTDFDSQINVPKTMESGTFITDKTVLDMKAMDSKSNGAIAWSNQTSFTCQDIFKETNATYPSSDVPCDATLTEKSFETDMNLNFQNLSVMGLRILLLKVAGFNLLMTLRLWSS
TCR beta: DTGVSQNPRHKITKRGQNVTFRCDPISEHNRLYWYRQTLGQGPEFLTYFQNEAQLEKSRLLSDRFSAERPKGSFSTLEIQRTEQGDSAMYLCASSLVRDEKLFFGSGTQLSVLE
With B5, the peptide concentration needed for recognition (IFN-γ release), relative to HA-1^H in test [1] is greater than 10000 times.

B6: TCR_1 (TCR, V domains shown)
Valpha: GENVEQHPSTLSVQEGDSAVIKCTYSDSASNYFPWYKQELGKGPQLIIDIRSNVGEKKDQRIAVTLNKTAKHFSLHITETQPEDSAVYFCAASDLNFGKGTSLLVTP
Vbeta: DTGVSQNPRHKITKRGQNVTFRCDPISEHNRLYWYRQTLGQGPEFLTYFQNEAQLEKSRLLSDRFSAERPKGSFSTLEIQRTEQGDSAMYLCASSLVSRVDGYTFGSGTRLTVV
For B6, the results for the binding result in test [2] and in test [3] were “no recognition” and “recognises”, respectively.

B7: TCR_1, P01849 1-136 (TCR, not shown: a dimerising Fc or GST)
TCR alpha: GENVEQHPSTLSVQEGDSAVIKCTYSDSASNYFPWYKQELGKGPQLIIDIRSNVGEKKDQRIAVTLNKTAKHFSLHITETQPEDSAVYFCAASDLNFGKGTSLLVTPHIQNPEPAVYQLKDPRSQDSTLCLFTDFDSQINVPKTMESGTFITDKTVLDMKAMDSKSNGAIAWSNQTSFTCQDIFKETNATYPSSDVPCDATLTEKSFETDMNLNFQNLSVMGLRILLLKVAGFNLLMTLRLWSS
TCR beta: DTGVSQNPRHKITKRGQNVTFRCDPISEHNRLYWYRQTLGQGPEFLTYFQNEAQLEKSRLLSDRFSAERPKGSFSTLEIQRTEQGDSAMYLCASSLVSRVDGYTFGSGTRLTVVE
Take B7: the peptide concentration needed for recognition (IFN-γ release), relative to HA-1^H in test [1] was greater than 10000 times.

B8: TCR_2 (TCR, V domains shown)
Valpha: GENVEQHPSTLSVQEGDSAVIKCTYSDSASNYFPWYKQELGKGPQLIIDIRSNVGEKKDQRIAVTLNKTAKHFSLHITETQPEDSAVYFCAAHTPGYSTLTFGKGTMLLVSP
Vbeta: DTGVSQNPRHKITKRGQNVTFRCDPISEHNRLYWYRQTLGQGPEFLTYFQNEAQLEKSRLLSDRFSAERPKGSFSTLEIQRTEQGDSAMYLCASSPRAGGETQYFGPGTRLLVL
Regarding B8, the results for the binding result in test [4], in test [2] and in test [3] were “no recognition”, “no recognition” and “recognises”, respectively.

B9: TCR_3 (TCR, V domains shown)
Valpha: SQQGEEDPQALSIQEGENATMNCSYKTSINNLQWYRQNSGRGLVHLILIRSNEREKHSGRLRVTLDTSKKSSSLLITASRAADTASYFCATGDQTGANNLFFGTGTRLTVIP
Vbeta: DTGVSQNPRHKITKRGQNVTFRCDPISEHNRLYWYRQTLGQGPEFLTYFQNEAQLEKSRLLSDRFSAERPKGSFSTLEIQRTEQGDSAMYLCASSLTRTEKLFFGSGTQLSVL
For B9, the binding result is “no recognition” in test [2] and “recognises” in test [3].

B10: TCR_6 (TCR, V domains shown)
Valpha: GEDVEQSLFLSVREGDSSVINCTYTDSSSTYLYWYKQEPGAGLQLLTYIFSNMDMKQDQRLTVLLNKKDKHLSLRIADTQTGDSAIYFCAEKWIIFGKGTRLHILP
Vbeta: DTGVSQNPRHKITKRGQNVTFRCDPISEHNRLYWYRQTLGQGPEFLTYFQNEAQLEKSRLLSDRFSAERPKGSFSTLEIQRTEQGDSAMYLCASSLTTPDGYTFGSGTRLTVV
Take B10: the results for the binding result in test [5] and in test [2] were “recognises” and “no recognition”, respectively.

B11: TCR_4 (TCR, V domains shown)
Valpha: GENVEQHPSTLSVQEGDSAVIKCTYSDSASNYFPWYKQELGKGPQLIIDIRSNVGEKKDQRIAVTLNKTAKHFSLHITETQPEDSAVYFCAGRGKLTFGTGTRLTIIP
Vbeta: DTGVSQNPRHKITKRGQNVTFRCDPISEHNRLYWYRQTLGQGPEFLTYFQNEAQLEKSRLLSDRFSAERPKGSFSTLEIQRTEQGDSAMYLCASSLVRDEKLFFGSGTQLSVL
Consider B11, for which the values for the binding result in test [2] and in test [3] were “no recognition” and “recognises”, respectively.

B12: TCR_5 (TCR, V domains shown)
Valpha: TQLLEQSPQFLSIQEGENLTVYCNSSSVFSSLQWYRQEPGEGPVLLVTVVTGGEVKKLKRLTFQFGDARKDSSLHITAAQTGDTGLYLCAGAGNNDMRFGAGTRLTVKP
Vbeta: DTGVSQNPRHKITKRGQNVTFRCDPISEHNRLYWYRQTLGQGPEFLTYFQNEAQLEKSRLLSDRFSAERPKGSFSTLEIQRTEQGDSAMYLCASSLVRGIEAFFGQGTRLTVV
B12: the binding result is given as “no recognition” in test [2] and “recognises” in test [3].

(Values after patent US20210300987A1 (published 2021).)
